Patent US20140170239A1 (VRIJE UNIVERSITEIT BRUSSEL, published 2014)
Where no end group is shown, it is not given here.

T1: biotinylated p53β peptide (human, also: biotinylated, site not given here)
T1 construct: also called biotinylated p53-aggregating peptide
T1 peptide: ILTIITL


Assays:
[1] = target: T1, biotinylated p53β peptide; test: peptide-binding assay: peptide spots on membrane, biotinylated p53β peptide, streptavidin-HRP;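 for Binding intensity (normalized): Membrane-bound synthesized peptide spots exposed to the biotinylated p53 aggregation-prone peptide, bound material revealed via streptavidin-HRP and chemiluminescence, spot signal reflecting binding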
Description: (§1) Subsequently, the ability of the selected peptides to interact with p53β using an in vitro peptide-binding assay was empirically determined. Therefore, the 56 selected peptides were spot-synthesized on a cellulose membrane, which was subsequently incubated with biotinylated p53β peptide (FIG. 17, panel b). After washing, the membrane was treated with streptavidine-HRP to detect p53β binding (FIG. 17, panel c).
(§2) Peptides of selected sequences were spot synthesized on PVDF membrane (PepSpot, JPT). The membranes were blocked by 1% BSA in phosphate-buffered saline for 1 hour at room temperature, and then incubated with biotinylated peptide containing the p53-aggregating sequence for 1 hour. After rinsing with 0.1% TWEEN® 20 in 25 mM MES buffer pH 7.0, membranes were incubated in HRP-labeled Streptavidin (Thermo) and visualized with electrochemical luminescence (ECL) system.

[2] = target: T1, biotinylated p53β peptide; test: as above
Description: as §1, §2

HA-tagged wild-type p53 = target: T2, HA-tagged wild-type p53 (human, UniProt P04637 1-393); test: co-IP, HeLa cells, anti-FLAG IP, anti-HA blot
T2 construct: range 1-393; expressed in cells, tested in cell lysate; also called WT p53; p53-HA
Description: HeLa (Human epithelial carcinoma) cells were cultured in DMEM supplemented with 10% fetal calf serum (Gibco), L-glutamine (4 mM), penicillin (100 U/ml), and streptomycin (100 U/ml). Proliferating cell cultures were maintained in a 5% CO2-humidified incubator at 37° C. […] The complex of DNA and FuGENE HD was prepared in 500 μL DMEM and incubated for 20 minutes before adding to cells. For stable transfection, DMEM medium containing 10% fetal calf serum and 500 μg/mL G418 was used to select colonies that carried the transfected vector for six weeks, and expression of the vector was validated by Western blot. Stably transfected cells were maintained in medium containing 250 μg/mL G418 for further analysis. Transfection of siRNA for p53 (Santa Cruz) was performed using X-tremeGENE siRNA transfection reagent (Roche) according to the manufacturer's instructions.
Hela cells co-transfected with mutant HA-p53 and FLAG-tagged proteins were lysed with RIPA buffer (Thermo) with DNase and protease inhibitors (Roche) for 30 minutes on ice. […] After incubation at 21° C. for 1 hour, the agarose beads were rinsed with 200 μL TBS three times, and subsequently eluted by heating at 95° C. in presence of SDS (without DTT). The co-immunoprecipitated p53 was detected with mouse anti-HA antibody or anti-p53.

Binder	Binding intensity (normalized) [1] [normalized]	Coaggregation (peptide binding) [2] [%]	binding result (HA-tagged wild-type p53)
ILDIITS (spot-synthesized on membrane; also called annexin-6 peptide fragment; position Nr 29) [ANXA6_HUMAN peptide ILDIITS]	78.9	78.9	–
ILTFKTL (spot-synthesized on membrane; also called position Nr 12) [DYH3_HUMAN peptide ILTFKTL]	6.2	–	–
ILQIISL (spot-synthesized on membrane; also called position Nr 18) [PK3C3_HUMAN peptide ILQIISL]	26.3	–	–
CLTIITG (spot-synthesized on membrane; also called position Nr 26) [TRI18_HUMAN peptide CLTIITG]	3.67	–	–
ILTITTP (spot-synthesized on membrane; also called position Nr 39) [CBPC3_HUMAN peptide ILTITTP]	19.6	–	–
ILVIITR (spot-synthesized on membrane; also called position Nr 48) [LONF2_HUMAN peptide ILVIITR]	6.81	–	–
IVTIITA (spot-synthesized on membrane; also called position Nr 3) [PDS5A_HUMAN peptide IVTIITA]	17.2	–	–
KLTIITS (spot-synthesized on membrane; also called position Nr 53) [CM031_HUMAN peptide KLTIITS]	17.9	–	–
ALTFITL (spot-synthesized on membrane; also called position Nr 7) [BN3D2_HUMAN peptide ALTFITL]	6.47	–	–
IQTISTL (spot-synthesized on membrane; also called position Nr 55) [SCC4_HUMAN peptide IQTISTL]	7.06	–	–
ILTIKEL (spot-synthesized on membrane; also called position Nr 31) [ZN830_HUMAN peptide ILTIKEL]	14.1	–	–
ILSIDTL (spot-synthesized on membrane; also called position Nr 54) [SPEF2_HUMAN peptide ILSIDTL]	79.6	79.6	–
ILCDITL (spot-synthesized on membrane; also called position Nr 43) [KLH32_HUMAN peptide ILCDITL]	7.89	–	–
FLAG-tagged Cyclin-I2 (other, human, UniProt Q6ZMN8 1-369, looked up, also called CCNI2_HUMAN; CCNI2) MASGAQLPPQPSSSEVSAVQSPGGRPGAGLEETALGVPLPPSPGEAPLPRSNRSRCPGTRQPGAASLHAASAAVPVRPRRGTAPAGKTADAVPAAAPEQAPRPAPQSRKPRNLEGDLDERRLLCHLQLAQDREARLWRGGKPQDEICDAFEEVVLWLLRLQNTFYFSQSTFNLALTIFGRLLISVKVKEKYLHCATITSLRLAAKVNEEEEFIPQVKDFTKHYGSDYSPNELLRMELAILDRLHWDLYIGTPLDFLTIFHALVVLSWPHVLELLPQRNPSLHVASLTRQLQHCMAGHQLLQFKGSTLALVIITLELERLMPGWCAPISDLLKKAQVGDMQYSCCKELVMQQLRSLQSSSCTDNFVSPAN	–	–	no binding
ILTSGTL (spot-synthesized on membrane; also called position Nr 36) [RTEL1_HUMAN peptide ILTSGTL]	17.3	–	–
ILTSQTL (spot-synthesized on membrane; also called position Nr 20) [DIP2B_HUMAN peptide ILTSQTL]	2.39	–	–
ILTIGTG (spot-synthesized on membrane; also called methionine synthase (METH) segment; position Nr 38) [METH_HUMAN peptide ILTIGTG]	49.2	49.2	–
ILTISSL (spot-synthesized on membrane; also called position Nr 22) [KV122_HUMAN peptide ILTISSL]	23.8	–	–
ILTIVSL (spot-synthesized on membrane; also called position Nr 4) [DHX33_HUMAN peptide ILTIVSL]	10.2	10.2	–

Binder	Binding intensity (normalized) [1] [normalized]	Coaggregation (peptide binding) [2] [%]	binding result (HA-tagged wild-type p53)
ILTILTE (spot-synthesized on membrane; also called caspase-8 (CASP8) segment; position Nr 11) [CASP8_HUMAN peptide ILTILTE]	11.4	11.4	–
LLTIILL (spot-synthesized on membrane; also called position Nr 9) [PGTA_HUMAN peptide LLTIILL]	3.95	–	–
LLTIINL (spot-synthesized on membrane; also called position Nr 6) [EPMIP_HUMAN peptide LLTIINL]	1.55	–	–
IKSIITL (spot-synthesized on membrane; also called position Nr 45) [CT132_HUMAN peptide IKSIITL]	4.39	–	–
IHAIITL (spot-synthesized on membrane; also called position Nr 27) [LRC40_HUMAN peptide IHAIITL]	8.22	–	–
LLTIETL (spot-synthesized on membrane; also called position Nr 24) [CYTIP_HUMAN peptide LLTIETL]	26.6	–	–
ILTLIEL (spot-synthesized on membrane; also called position Nr 41) [SMG1_HUMAN peptide ILTLIEL]	9.77	–	–
ITTGITL (spot-synthesized on membrane; also called CGRF1 segment; position Nr 30) [CGRF1_HUMAN peptide ITTGITL]	36.7	–	–
IYTGITL (spot-synthesized on membrane; also called position Nr 14) [VATA_HUMAN peptide IYTGITL]	32.1	–	–
ITTVITL (spot-synthesized on membrane; also called position Nr 8) [CD041_HUMAN peptide ITTVITL]	5.27	–	–
ILTEIHL (spot-synthesized on membrane; also called position Nr 34) [RFC5_HUMAN peptide ILTEIHL]	12.9	–	–
GLTIPTL (spot-synthesized on membrane; also called position Nr 52) [AL2SA_HUMAN peptide GLTIPTL]	10.9	–	–
DLTIIDL (spot-synthesized on membrane; also called position Nr 50) [MX2_HUMAN peptide DLTIIDL]	40.2	–	–
ILTNTTL (spot-synthesized on membrane; also called position Nr 21) [CC132_HUMAN peptide ILTNTTL]	77	77	–
ILLIITD (spot-synthesized on membrane; also called Copine-2 (CPNE2) segment; position Nr 42) [CPNE2_HUMAN peptide ILLIITD]	111	111	–
ILTKISL (spot-synthesized on membrane; also called position Nr 13) [HEAT1_HUMAN peptide ILTKISL]	8.65	–	–
FLTIFTL (spot-synthesized on membrane; also called position Nr 25) [PRA10_HUMAN peptide FLTIFTL]	26.4	–	–
IKTIINL (spot-synthesized on membrane; also called position Nr 33) [PTPC1_HUMAN peptide IKTIINL]	9.72	–	–
ALVIITL (spot-synthesized on membrane; also called position Nr 23) [CCNI2_HUMAN peptide ALVIITL]	43.4	43.4	–

Binder	Binding intensity (normalized) [1] [normalized]	Coaggregation (peptide binding) [2] [%]	binding result (HA-tagged wild-type p53)
IEVIITL (spot-synthesized on membrane; also called position Nr 32) [CXL11_HUMAN peptide IEVIITL]	8.54	–	–
ILIIITL (spot-synthesized on membrane; also called p73β; position Nr 35) [P73_HUMAN peptide ILIIITL]	99	99	–
ILIIVTL (spot-synthesized on membrane; also called p63β; position Nr 16) [P63_HUMAN peptide ILIIVTL]	92	92	–
ILTIITL (spot-synthesized on membrane; also called p53β; position Nr 1) [P53_HUMAN peptide ILTIITL (immobilised spot)]	100	–	–
ILGKITL (spot-synthesized on membrane; also called position Nr 17) [MP2K4_HUMAN peptide ILGKITL]	16.9	–	–
ILTILCL (spot-synthesized on membrane; also called position Nr 5) [TAGAP_HUMAN peptide ILTILCL]	4.81	4.8	–
ILTDVTL (spot-synthesized on membrane; also called position Nr 40) [BCL6B_HUMAN peptide ILTDVTL]	5.88	–	–
ILKQITL (spot-synthesized on membrane; also called position Nr 49) [TAF4B_HUMAN peptide ILKQITL]	19.8	–	–
ILKNITL (spot-synthesized on membrane; also called position Nr 46) [BPA1_HUMAN peptide ILKNITL]	12.1	–	–
ILRQITL (spot-synthesized on membrane; also called position Nr 56) [CD2A1_HUMAN peptide ILRQITL]	14.7	–	–
ILTICTK (spot-synthesized on membrane; also called position Nr 47) [RTTN_HUMAN peptide ILTICTK]	6.48	–	–
TLTISTL (spot-synthesized on membrane; also called position Nr 15) [KV117_HUMAN peptide TLTISTL]	10.2	–	–
VLTISTL (spot-synthesized on membrane; also called position Nr 10) [BPTF_HUMAN peptide VLTISTL]	6.72	–	–
RRPILTIITLEDGS (spot-synthesized on membrane; longer peptide that holds ILTIITL; also called position Nr 2) [Control peptide RRPILTIITLEDGS]	30.9	–	–
ILTKYTL (spot-synthesized on membrane; also called position Nr 37) [NOL11_HUMAN peptide ILTKYTL]	33.3	–	–
ILTKSTL (spot-synthesized on membrane; also called position Nr 51) [CND2_HUMAN peptide ILTKSTL]	17.9	–	–
ILTKPTL (spot-synthesized on membrane; also called position Nr 28) [MYST3_HUMAN peptide ILTKPTL]	16.1	–	–
MLTEITL (spot-synthesized on membrane; also called position Nr 19) [GCDH_HUMAN peptide MLTEITL]	3.03	–	–
ILQIITE (spot-synthesized on membrane; also called position Nr 44) [DHX29_HUMAN peptide ILQIITE]	15.6	–	–
